Test results: patent US20220356267A1

Columns and labels:
[1] = target: recombinant human CD73 protein (ecto-5'-nucleotidase), expressed by the applicant, C-terminal 6x His tag (human) (UniProt P21589); assay: SPR, Biacore T200, antibody captured, human CD73 injected, 25 °C, 1:1 fit
[2] = target: CD73 on A549 cells (UniProt P21589); assay: cell-based or functional assay
[3] = target: recombinant human CD73 protein (ecto-5'-nucleotidase), expressed by the applicant, C-terminal 6x His tag (human) (UniProt P21589); assay: cell-based or functional assay

Kd [1]: 0.107 nM | koff [1]: 6.9e-05 s⁻¹ | kon [1]: 647000 M⁻¹ s⁻¹ | EC50 (µg/mL), Cell level (A549 cells), inhibition of the enzyme activity of CD73 [2]: 0.113 µg/mL | EC50 (µg/mL), Biochemical level, inhibition of the enzyme activity of CD73 [3]: 0.188 µg/mL
Substance: MEDI-9447 (antibody)
